Earlier results, collected in paper PMC2994244.
Read-outs that look alike come from different tables or passages of the source.

How the values were obtained:
ACP (Escherichia coli) [1] = target: ACP (Escherichia coli) (UniProt P0A6A8)
ACP (Escherichia coli) [2] = target: ACP (Escherichia coli) (UniProt P0A6A8); remark: listed apart in the source

Sequence of UniProt P0A6A8 (P0A6A8 2-78): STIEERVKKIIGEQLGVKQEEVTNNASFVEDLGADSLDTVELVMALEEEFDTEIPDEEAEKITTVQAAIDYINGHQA

| Substance | Kd (ACP (Escherichia coli) [1]) | Kd (ACP (Escherichia coli) [2]) |
| --- | --- | --- |
| KASI (from UniProt P0A953) | 180 nM |  |
| KASII (from UniProt P0AAI5) |  | 70 nM |
